Literature values in article PMC5432642.

Biological target: C3b C3b (Homo sapiens) (UniProt P01024)
Sequence (P01024 566-670): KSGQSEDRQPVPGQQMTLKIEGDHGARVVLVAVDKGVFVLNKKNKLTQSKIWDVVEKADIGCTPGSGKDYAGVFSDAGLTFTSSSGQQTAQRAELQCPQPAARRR

Sequence of FH19–20 FH19-20 (P08603 1107-1231): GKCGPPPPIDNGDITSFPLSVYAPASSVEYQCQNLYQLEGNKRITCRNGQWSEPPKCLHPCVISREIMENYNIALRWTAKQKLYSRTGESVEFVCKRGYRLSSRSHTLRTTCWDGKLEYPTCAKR

For FH19–20 FH19-20 (from UniProt P08603), the Kd is listed as 5 µM.
